Laboratory results as given in patent US20180291083A1 (IMMATICS BIOTECHNOLOGIES, published 2018).

What follows are binders tested against T1, HLA-A*02:01 (human) (assay: UV ligand exchange ELISA; exchange yield grade).
T1 construct: Peptide-receptive MHC class I monomer made by UV cleavage of a UV-sensitive ligand
Summary of the method: (§1)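 Peptide–MHC complexes formed by UV-ligand exchange, in which a UV-cleavable peptide is replaced by the test peptide. Exchange yield measured by ELISA detecting β2m of stabilised complexes captured on streptavidin, against refolded HLA-A*02:01/MLA-001 monomer standards (15-500 ng/ml); samples diluted 100-fold.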

Row | Binder | peptide exchange yield [%]
1 | KLSDNILKL | > 75
2 | FLINTNSEL | > 75
3 | SLADVHIEV | > 75
4 | FLLPKVQSI | > 75
5 | RLIAKEMNI | > 75
6 | SLMDLQERL | 50 to 75
7 | KLLGYDVHV | 50 to 75
8 | VMLQINPKL | 50 to 75
9 | FLLPKVQSIQL | 50 to 75
10 | AMPDSPAEV | > 75
11 | ILAAVETRL | 50 to 75

Each binder was assayed against T2, HLA-A*24:02 (human) (assay: UV ligand exchange ELISA; exchange yield grade).
T2 construct: Peptide-receptive MHC class I monomer made by UV cleavage of a UV-sensitive ligand
Summary of the method: as §1

Row | Binder | peptide exchange yield [%]
12 | SYADNILSF | > 75
13 | TYPQLEGFKF | > 75
14 | EYNTIKDKF | 50 to 75
15 | RYLGKNWSF | > 75
16 | IFVARLYYF | > 75
17 | IYFSNTHFF | 50 to 75
18 | RFYLLTEHF | 50 to 75
19 | KYSSGFRNI | 50 to 75
20 | LYSDIGHLL | 50 to 75
21 | LYQDRFDYL | > 75
22 | TYVENLRLL | 50 to 75
23 | IFKEHNFSF | > 75
24 | RYLDEINLL | 50 to 75
25 | RFPPTPPLF | > 75
26 | KYIEYYLVL | > 75
27 | YYLSHLERI | > 75
28 | VFLPSEGFNF | 50 to 75
29 | SFQSKATVF | 20 to 50
30 | KYLADLPTL | > 75

The binders below were run against T3, human recombinant HLA-B*08:01 with b2m (human) (assay: pMHC stability assay at 37 C, mean half-life of b2m on heavy chain, grade (T1/2 >2 h = +; >4 h = ++; >6 h = +++; >10 h = ++++)).
T3 construct: Peptide-receptive MHC class I used in the pMHC stability assay by ImmunAware; also called MHC heavy chain and b2m
Experimental: The peptide-MHC stability for HLA-B*08:01 peptides was performed by ImmunAware (Copenhagen, Denmark). The data were obtained using a proximity based, homogenous, real-time assay to measure the dissociation of peptides from HLA class I molecules. First human recombinant HLA-B*08:01 and b2m were expressed in E. coli and purified in a series of liquid chromatography based steps (Ferre et al., 2003; Ostergaard et al., 2001). Afterwards, the stability of a peptide-MHC complex (pMHC) can be determined by measuring the amount of b2m associated with the MHC heavy chain over time at 37° C. (Harndahl et al., 2012). The stability of each pMHC, expressed as the half life of b2m associated with the respective heavy chain, was calculated by fitting the data to a one-phase dissociation equation.

Row | Binder | mean half-life (T1/2) of peptide-MHC complex [h]
31 | RPKKVNTL (synthetic peptide; also called ZBTB24 peptide) [peptide RPKKVNTL (SEQ ID NO: 121)] | 2 to 4
32 | DANSRTSQL (synthetic peptide; also called MAP3K1 peptide) [peptide DANSRTSQL (SEQ ID NO: 113)] | 6 to 10
33 | LGHVRYVL (synthetic peptide; also called AGPAT5 peptide) [peptide LGHVRYVL (SEQ ID NO: 109)] | 2 to 4
34 | ELYQRIYAF (synthetic peptide; also called PIK3R6 peptide) [peptide ELYQRIYAF (SEQ ID NO: 115)] | 4 to 6
35 | ILAIRQNAL (synthetic peptide; also called AGPAT5 peptide) [peptide ILAIRQNAL (SEQ ID NO: 108)] | 4 to 6
36 | DLRTKEVVF (synthetic peptide; also called SIPA1L3 peptide) [peptide DLRTKEVVF (SEQ ID NO: 119)] | 4 to 6
37 | QAAQRTAL (synthetic peptide; also called AFF3 peptide) [peptide QAAQRTAL (SEQ ID NO: 107)] | 4 to 6
38 | YIKTAKKL (synthetic peptide; also called RALGPS2 peptide) [peptide YIKTAKKL (SEQ ID NO: 117)] | 4 to 6
39 | APLLRHWEL (synthetic peptide; also called HLA-DOA peptide) [peptide APLLRHWEL (SEQ ID NO: 112)] | 2 to 4
40 | VPPKKHLL (synthetic peptide; also called TRRAP peptide) [peptide VPPKKHLL (SEQ ID NO: 120)] | 2 to 4
41 | FEKEKKESL (synthetic peptide; also called SESN3 peptide) [peptide FEKEKKESL (SEQ ID NO: 118)] | 6 to 10
42 | HNALRILTF (synthetic peptide; also called NUP210 peptide) [peptide HNALRILTF (SEQ ID NO: 114)] | 4 to 6
43 | TLKIRAEVL (synthetic peptide; also called RALGPS2 peptide) [peptide TLKIRAEVL (SEQ ID NO: 116)] | 6 to 10
44 | FGLARIYSF (synthetic peptide; also called CDK6 peptide) [peptide FGLARIYSF (SEQ ID NO: 110)] | 2 to 4
